Experiments:
[1] = target: T1, h-γ appendage (residues 704–822), 6xHis (human, UniProt O43747 704-822); assay: ITC
T1 sequence (looked up): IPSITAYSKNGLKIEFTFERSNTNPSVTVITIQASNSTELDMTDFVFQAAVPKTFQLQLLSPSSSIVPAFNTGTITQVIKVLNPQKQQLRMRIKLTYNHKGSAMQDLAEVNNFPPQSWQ

[2] = target: T2, h-β2 appendage (residues 700–937), 6xHis (human, UniProt P63010 700-937); assay: ITC
T2 sequence (looked up): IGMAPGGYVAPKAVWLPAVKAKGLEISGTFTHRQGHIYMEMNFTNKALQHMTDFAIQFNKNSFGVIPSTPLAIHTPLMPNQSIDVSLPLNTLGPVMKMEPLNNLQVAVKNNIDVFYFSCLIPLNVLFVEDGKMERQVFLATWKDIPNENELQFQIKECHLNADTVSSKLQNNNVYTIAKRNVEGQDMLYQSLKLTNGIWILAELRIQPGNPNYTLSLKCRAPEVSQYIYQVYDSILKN

B1: epsinR N3 construct (291–426), GST cleaved (domain or fragment, human, UniProt Q14677 291-426, looked up)
chain: AHYTGDKASPDQNASTHTPQSSVKTSVPSSKSSGDLVDLFDGTSQSTGGSADLFGGFADFGSAAASGSFPSQVTATSGNGDFGDWSAFNQAPSGPVASSGEFFGSASQPAVELVSGSQSALGPPPAASNSSDLFDL
stoichiometry N [1]: 2 appendage domains per epsinR N3 | stoichiometry N [2]: 2 appendage domains per epsinR N3

Reference: article PMC2172650 (The Journal of Cell Biology, 2003)
